Patent US20050164929A1, “Methods of preventing and treating inflammatory bowel disease” (LUPINE LOGIC, INC., priority 2000, published 2005)
“And” between values parts separate entries of the source, which are not always exact repeats. Identical values can stand only once. Marks after values point to notes of the source that are not given here. Residues, ends and D or L forms follow the SMILES beside them. *: point of attachment. Cbz = O=C(OCc1ccccc1)*

Tests used:
[1] = tested on: COX-2 induction in Caco-2 cells; test: COX-2 induction by CG53135 in presence of proteosome inhibitor; format: cell-based, human
Procedure: FIG. 18. Effect of NFkB on activation of CG53135 and stimulation of COX-2 in intestinal epithelial cells. NFkB promoter activity was assayed in HT-29 and Caco2 cell lines in the presence of CG53135-01 E. coli purified product.
ITF promoter activity in HT-29 cells was assayed. […] Thus NF-kB may not have a role inducing COX-2 expression in the presence of CG53135.

endothelial cells = test: Proliferation summary for variants; format: cell-based; settings: in vitro
Procedure: (§1) Experiments were performed to evaluate the proliferative response of representative cell types to CG53135, e.g., a full-length tagged variant (CG53135-01), a deletion variant (CG53135-02), and a full-length codon-optimized untagged variant (CG53135-05).
(§2) CG53135-02 (batch 1 and 13) was also used in these experiments. Protein was expressed in E. coli, BLR (DE3) (Novagen), transformed with the deletion variant CG53135-02 inserted into a pET24a vector (Novagen). A research cell bank (RCB) was produced and cell paste containing CG53135-02 was produced by fermentation of cells originating from the RCB. Cell membranes were disrupted by high-pressure homogenization, and lysate was clarified by centrifugation. CG53135-02 was purified by ion exchange chromatography. The final protein fraction was dialyzed against the formulation buffer (100 mM citrate, 1 mM ethylenediaminetetraacetic acid (EDTA), and 1 M L-arginine).
(§3) CG53135-05, DEV10, which were also used in these experiments, was prepared by Cambrex Biosciences (Hopkinton, Mass.) according to Process 1 as described in Section 6.18.1, infra.
(§4) BrdU Incorporation: proliferative activity was measured by treatment of serum-starved cultured cells with a given agent and measurement of BrdU incorporation during DNA synthesis. Cells were cultured in respective manufacturer recommended basal growth medium supplemented with 10% fetal bovine serum or 10% calf serum as per manufacturer recommendations. Cells were grown in 96-well plates to confluence at 37° C. in 10% CO2/air (to subconfluence at 5% CO2 for dedifferentiated chondrocytes and NHOst). Cells were then starved in respective basal growth medium for 24-72 hours. CG53135 protein purified from E. coli or pCEP4/Sec or pCEP4/Sec-FGF 20× enriched conditioned medium was added (10 μL/100 μL of culture) for 18 hours. BrdU (10 μM final concentration) was then added and incubated with the cells for 5 hours. BrdU incorporation was assayed according to the manufacturer's specifications (Roche Molecular Biochemicals, Indianapolis, Ind.).
(§5) The above described experiments were also performed using CG53135-02 and CG53135-05 protein products, and the results are summarized in the Conclusion section below.

[2] = tested on: mesenchymal and epithelial cells; test: Proliferation summary for variants; format: cell-based; settings: in vitro
Procedure: as §1, §2, §3, §4, §5

[3] = tested on: NIH 3T3 murine embryonic fibroblast cells; test: BrdU incorporation bioassay of RP-HPLC peak fractions; format: cell-based, mouse; settings: for PI200: concentration giving BrdU incorporation at 2 times the background, serum-starved NIH 3T3, 18 hours; for induction of DNA synthesis / activity in proliferation assays: BrdU incorporation
Procedure: The biological activity of CG53135-05 related species collected from the 4 peaks identified by LC and MS was measured by treatment of serum-starved cultured NIH 3T3 murine embryonic fibroblast cells with various doses of the isolated CG53135-05 related species and measurement of incorporation of bromodeoxyuridine (BrdU) during DNA synthesis. For this assay, cells were cultured in Dulbecco's modified Eagle's medium supplemented with 10% fetal bovine serum. Cells were grown in 96-well plates to confluence at 37° C. in 10% CO2/air and then starved in Dulbecco's modified Eagle's medium for 24-72 hours. CG53135-05-related species were added and incubated for 18 hours at 37° C. in 10% CO2/air. BrdU ([…]) was added and incubated with the cells for 2 hours at 37° C. in 10% CO2/air. Incorporation of BrdU was measured by enzyme-linked immunosorbent assay according to the manufacturer's specifications (Roche Molecular Biochemicals, Indianapolis, Ind.).
Peak 4 was not included in this assay since insufficient material was collected (Peak 4 is less than 3% of the total peak area for CG53135-05).

NIH 3T3 cells = test: BrdU incorporation, truncated vs full length FGF-20 conditioned medium; format: cell-based, mouse; settings: 10 ng/mL
Procedure: NIH 3T3 mouse fibroblasts were serum-starved, incubated with the indicated factor for 18 hours, and analyzed by a BrdU incorporation assay.
A vector expressing amino acids 24-211 of FGF-20, referred to as CG53135-17 (SEQ ID NOs:31 and 32), was prepared. The incorporation of BrdU by NIH 3T3 cells treated with conditioned medium obtained using the vector incorporating this truncated form was compared to the incorporation in response to treatment with conditioned medium using a vector encoding full length FGF-20. This experiment was carried out as described above.

[4] = tested on: soluble FGF receptors (FGFRs); test: Receptor binding specificity: control growth factors with soluble FGFRs; format: cell-based; settings: all soluble FGFRs under analysis
Procedure: NIH 3T3 cells were serum-starved, incubated with the indicated growth factor (square=PDGF-BB; triangle=aFGF; circle=FGF-CX) either alone or together with the indicated soluble FGFR, and analyzed by a BrdU incorporation assay. Experiments were performed in triplicate and are represented as the percent BrdU increase in incorporation of BrdU relative to cells receiving the growth factor alone.
To determine the receptor binding specificity of FGF-20, we examined the effect of soluble FGF receptors (FGFRs) on the induction of DNA synthesis in NIH 3T3 cells by recombinant FGF-20. Four receptors have been identified to date (Klint P and Claesson-Welsh L. Front. Biosci., 4: 165-177, 1999; Xu X, et al. Cell Tissue Res., 296: 33-43, 1999). Soluble receptors for FGFR1β(IIIc), FGFR2a(IIIb), FGFR2β(IIIb), FGFR2a(IIIc), FGFR3a(IIIc) and FGFR4 were utilized.

[5] = Turbidity (aggregates) after ultrafiltration/diafiltration; format: physicochemical
Procedure: The experiment was conducted by performing the ultrafiltration/diafiltration at 2.5 mg/mL CG53135-05 in 0.2M arginine and 0.05 M sodium phosphate buffer at pH 7.0. After exchanging with 7 volumes of the final buffer (0.5M arginine and 0.05 M sodium phosphate buffer at pH 7.0), the diafiltrate is concentrated to ˜20 mg/mL. The diafiltrate is then diluted with the final buffer to ˜12.5 mg/mL and lyophilized. Polysorbate 80 is added either before or after the diafiltration to a final concentration of 0.01%.
All formulation contains 0.5 M arginine, 0.05 M sodium phosphate monobasic, and 0.01% polysorbate 80.

[6] = Solubility of protein in formulation buffers; format: physicochemical; settings: for Solubility of Process 2 protein, Arginine Sulfate vs Arginine Phosphate: Batches #K, #J
Procedure: Four unexpected properties of CG53135 were discovered and used to develop the new formulation: (1) high concentration of arginine, >0.4 M, increases the solubility to >30 mg/mL; (2) the use of sulfate salt of arginine increases the solubility by at least 2-6 folds; (3) the optimal concentration of sodium phosphate as a buffering salt is 50 mM, with a solubility of at least 1-2 fold increase in comparison with concentrations at 25, 75, and 100 mM; and (4) adding a surfactant during the diafiltration/ultrafiltration step minimizes the formation of aggregates. In development the lyophilized formulation, each component of the new formulation was evaluated for solubility individually. CG53135-05 was precipitated using the precipitate buffer (50 mM NaPi, 5 mM EDTA, 1 M L-Arginine HCl, 2.5 M (NH4)2SO4). The precipitate was washed with 25 mM sodium phosphate buffer at pH 6.5 to remove the residual arginine and ammonium sulfate. The following are examples of data.

CC(C)C[C@@H](C=O)NC(=O)[C@H](CC(C)C)NC(=O)[C@H](CC(C)C)NC(=O)OCc1ccccc1 [MG132] (Cbz-Leu-Leu-Leu-aldehyde)
block of COX-2 induction by CG53135 [1]: does not block COX-2 induction

CG53135-02: Codon optimized, amino acids 2-54 of SEQ ID NO: 2 removed; SEQ ID NOs 3 and 4
proliferation of endothelial cells (endothelial cells): induces proliferation
proliferation of mesenchymal and epithelial cells [2]: induce proliferation

CG53135-05 (DEV 10): Process 1 reference standard of CG53135-05 E. coli purified product
PI200 [3]: 1.0 ng/mL

CG53135-17: CG53135-05 minus first 23 amino acids at the N-terminus (amino acids 24-211 of FGF-20)
activity (BrdU incorporation) at lowest concentration tested (NIH 3T3 cells): retains high activity

PDGF-BB: control growth factor
effect of soluble receptor reagents on induction of DNA synthesis by control factor [4]: None of the soluble receptor reagents interfered

Peak 2: RP-HPLC peak at 27.3 min: CG53135-13 (residues 3-211)
induction of DNA synthesis / activity in proliferation assays [3]: dose-dependent manner
PI200 [3]: 11 ng/mL

Peak 3: RP-HPLC peak at 28.5 min: CG53135-05 (residues 1-211)
induction of DNA synthesis / activity in proliferation assays [3]: dose-dependent manner
PI200 [3]: 8.6 ng/mL

Process 2 protein: protein product (CG53135-05) produced by the improved production process, Process 2
Turbidity ([5]; Polysorbate added during ultrafiltration/diafiltration: No, 13.0 mg/mL): 4.6 NTU
Turbidity ([5]; Polysorbate added during ultrafiltration/diafiltration: Yes, 12.5 mg/mL): 20.9 NTU
Solubility of Process 2 protein ([6]; Arginine 0.05 M, Batches #1-#3): 0.7 mg/mL and 0.6 mg/mL and 0.5 mg/mL
Solubility of Process 2 protein ([6]; Arginine 0.15 M, Batches #1-#3): 2.2 mg/mL and 1.6 mg/mL
Solubility of Process 2 protein ([6]; Arginine 0.20 M, Batches #1-#3): 3.0 mg/mL and 4.7 mg/mL and 4.3 mg/mL
Solubility of Process 2 protein ([6]; Arginine 0.30 M, Batch #4): 5.8 mg/mL
Solubility of Process 2 protein ([6]; Arginine 0.35 M, Batch #4): 10.1 mg/mL
Solubility of Process 2 protein ([6]; Arginine 0.40 M, Batch #4): 9.8 mg/mL
Solubility of Process 2 protein ([6]; Arginine 0.45 M, Batch #4): 32.3 mg/mL
Solubility of Process 2 protein ([6]; Arginine 0.50 M, Batch #4 (not sufficient protein to be dissolved) and #5): 23.8* mg/mL and 37 mg/mL
Solubility of Process 2 protein, Arginine Sulfate vs Arginine Phosphate ([6]; first formulation line: 50 mM sodium phosphate monobasic and 0.15 M Arginine at pH 7): 4400 µg/mL and 2300 µg/mL
Solubility of Process 2 protein, Arginine Sulfate vs Arginine Phosphate ([6]; second formulation line: 50 mM sodium phosphate monobasic and 0.15 M Arginine at pH 7): 6500 µg/mL and 5200 µg/mL
Solubility of Process 2 protein ([6]; sodium phosphate monobasic 25 mM, 0.2 M arginine, Batches #A-#E): 4.01 mg/mL and 2.4 mg/mL and 2.6 mg/mL and 3.59 mg/mL
Solubility of Process 2 protein ([6]; sodium phosphate monobasic 50 mM, 0.2 M arginine, Batches #A-#E): 5.47 mg/mL and 4.7 mg/mL and 3.3 mg/mL and 4.3 mg/mL and 4.81 mg/mL
Solubility of Process 2 protein ([6]; sodium phosphate monobasic 75 mM, 0.2 M arginine, Batches #A-#E): 4.06 mg/mL and 2.5 mg/mL and 2.6 mg/mL and 3.0 mg/mL and 2.38 mg/mL
Solubility of Process 2 protein ([6]; sodium phosphate monobasic 100 mM, 0.2 M arginine, Batches #A-#E): 3.78 mg/mL and 2.8 mg/mL and 2.4 mg/mL and 2.9 mg/mL and 2.47 mg/mL

aFGF: acidic FGF, a factor known to interact with all of the FGFRs under analysis
effect of soluble receptor reagents on induction of DNA synthesis by control factor [4]: inhibit the induction of DNA synthesis
